Laboratory results: the supplement of paper PMC9170038

Tested on: MS2 coat protein
Assay: apparent KD of MS2 coat protein; designed switch direction (-1 OFF switch, 1 ON switch): 1; higher = weaker reporter binding
Outline: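 Designed RNA switches with common flanks were made on Illumina chips by stalled E. coli RNA polymerase. Titration with SNAP-549-labelled MS2 coat protein doubled from 0.7 or 1.5 nM up to 3 µM. Apparent KD is each design's median over clusters after curve-fitting normalised fluorescence.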

[1] = input ligand: microRNA oligo, concentration not stated
[2] = Eterna round: R95, input ligand: FMN 200 uM
[3] = Eterna round: R95, input ligand: microRNA oligo, concentration not stated
[4] = Eterna round: R95, input ligand: none

GCCGUAUACAUGAGGAUCACCCAUGUUGACGCGAGAGUGGAUGAGGAUAUCGAUGGGUUUCCCGUCGAGAAGGCGUGGGUCGGC [JL SSNG3 3.00] (Eterna round: R96, puzzle: Same State NG 3)
apparent KD of MS2 coat protein (input ligand: FMN 200 uM): 49.8 nM | apparent KD of MS2 coat protein [1]: 30.5 nM | apparent KD of MS2 coat protein (input ligand: none): 46.1 nM

UGAAUAGUUACAGGAUAUGAGCCGAAAAUUGGGUCAGAAGGGUGGGUGUUUUGCGCUAUGUGCUACAUGAGGAUCACCCAUGUU [SameState NG1 #34] (Eterna round: R96, puzzle: Same State NG 1)
apparent KD of MS2 coat protein (input ligand: FMN 200 uM): 888 nM | apparent KD of MS2 coat protein [1]: 268 nM | apparent KD of MS2 coat protein (input ligand: none): 338 nM

GAGAAUCUAUCUCAGGAUAUCAUGUCAAAGACAUGAGGAUCACCCAUGUACCAGGAAACUGGUUAUGAGAAGGGAGAUAGAUUCG [Mat - Same State 2 - Mod - D36] (puzzle: Same State 2)
apparent KD of MS2 coat protein [2]: 86.1 nM | apparent KD of MS2 coat protein [3]: 111 nM | apparent KD of MS2 coat protein [4]: 40.1 nM

AGUCCUGCCUGAGCAGGACAAAAGCAUGUACAUGAGGAUCACCCAUGUCAUGUACAAGCUUUUUGCUCGUCUUAAUA [Mat - hsa-mir-208a - Mod of JL - D41] (puzzle: Sensor for hsa-mir-208a)
apparent KD of MS2 coat protein [2]: 556 nM | apparent KD of MS2 coat protein [3]: 15.4 nM | apparent KD of MS2 coat protein [4]: 854 nM

UGUAAACAUGAGGAUCACCCAUGUUUUUUCAUGGGAGGAUAUCUGAGUUAAGUAUAUUAAGGAGAAGGCCUUGUGU [× ×•×ª×• ×ž×“×™× ×” × ×—×ª-03] (puzzle: Same State 1)
apparent KD of MS2 coat protein [2]: 90.2 nM | apparent KD of MS2 coat protein [3]: 18.7 nM | apparent KD of MS2 coat protein [4]: 24.7 nM

UGUUGUAUUACAGGAUAUCUAGUAUUUUUAUUUAGAGAAGGGUAUUCACAUGAGGAUCACCCAUGUAUAUACGAGGAAGUUGUG [JMF's solution 9] (Eterna round: R96, puzzle: Same State NG 1)
apparent KD of MS2 coat protein [1]: 28 nM

GCGAGCGUACUUGCUACAUGAGGAUCACCCAUGUUUAUUGGACAGGAUAUGGUACCGUUUCGGUACCAGAAGGGUCCACAUGUG [JL SSNG3 3.86] (Eterna round: R96, puzzle: Same State NG 3)
apparent KD of MS2 coat protein (input ligand: FMN 200 uM): 106 nM | apparent KD of MS2 coat protein [1]: 182 nM | apparent KD of MS2 coat protein (input ligand: none): 289 nM

AAUUAAGAUCAAGGAUAUCACGUCGAAUAGACGUGAGAAGGUGAUAAUUACAUGAGGAUCACCCAUGUAUAACAUGAAUUAAUU [SSNG1/9-B1] (Eterna round: R96, puzzle: Same State NG 1)
apparent KD of MS2 coat protein (input ligand: FMN 200 uM): 30 nM | apparent KD of MS2 coat protein [1]: 24.8 nM | apparent KD of MS2 coat protein (input ligand: none): 38 nM

AAAGAUGGACAUGAGGAUCACCCAUGUGGAAAGUGAACAAGCUUUUGCUCGUGACAAAUGAACAAUCCAAUCCUAAA [mksensor] (puzzle: Sensor for hsa-mir-208a version 2)
apparent KD of MS2 coat protein [2]: 26.3 nM | apparent KD of MS2 coat protein [3]: 24.5 nM | apparent KD of MS2 coat protein [4]: 25 nM

UCUUGGUUUUUGCUCGUUUUUUGUGUUGAACAUGAGGAUCACCCAUGUAUUGUACGGUCCGAUUUGAUGAUGGUCCA [JMF 42] (puzzle: Sensor for hsa-mir-208a)
apparent KD of MS2 coat protein [2]: 31.4 nM | apparent KD of MS2 coat protein [3]: 22.2 nM | apparent KD of MS2 coat protein [4]: 35.1 nM

GGAGCCGGUACUGAGGAUAUUCAUAUUAAAACAUGAGGAUCACCCAUGUGGGCCAGAAGGCCUUGGGAGAAGGCAGACCAGCUCG [Atgexeedri - 3] (Eterna round: R96, puzzle: Same State 2)
apparent KD of MS2 coat protein (input ligand: FMN 200 uM): 18.2 nM | apparent KD of MS2 coat protein [1]: 108 nM | apparent KD of MS2 coat protein (input ligand: none): 156 nM

AGUCCAGCCUGAGCUGGACAAAAGCAUGUACAUGAGGAUCACCCAUGUCAUGUACAAGCUUUUUGCUCGUAUUAAUA [Mat - hsa-mir-208a - Mod of JL - D30] (puzzle: Sensor for hsa-mir-208a)
apparent KD of MS2 coat protein [2]: 491 nM | apparent KD of MS2 coat protein [3]: 12.7 nM | apparent KD of MS2 coat protein [4]: 528 nM

GGUGCCAAAUAAGCCUACAUGAGGAUCACCCAUGUAUGUAGGCAGGAUAUCGUAUGCAAAGCAUACGAGAAGGGCCGAGGCACC [Mat - Same State NG 3 - JL Mod - D57] (Eterna round: R96, puzzle: Same State NG 3)
apparent KD of MS2 coat protein (input ligand: FMN 200 uM): 23.8 nM | apparent KD of MS2 coat protein [1]: 29.3 nM | apparent KD of MS2 coat protein (input ligand: none): 47.1 nM

UUAUUAUUUACAUGAGGAUCACCCAUGUUUUUAUGUCAGAGAUAGGAUAUAGAAGUCUCGUUUUACUAGAAGGAUCUUUUUAUU [JR_SSNG3_Sub083] (Eterna round: R96, puzzle: Same State NG 3)
apparent KD of MS2 coat protein (input ligand: FMN 200 uM): 21.2 nM | apparent KD of MS2 coat protein [1]: 16.7 nM | apparent KD of MS2 coat protein (input ligand: none): 22.8 nM

GUGGUCAGACAUGAGGAUCACCCAUGUGGAAUAAAUAACGUCAAGGAUAUUCAAUAUAGGAUAUAGAAGAAGGUGAGAUUGGUG (Eterna round: R96, puzzle: Same State NG 3)
apparent KD of MS2 coat protein [1]: 142 nM

GCUCGAUGAUAGUCCUACAUGAGGAUCACCCAUGUAAGUGGGCAGGAUAUCUACAUGCAGAAUGUAGAGAAGGGCCCGUCGAGC [SameState NG3 #56] (Eterna round: R96, puzzle: Same State NG 3)
apparent KD of MS2 coat protein (input ligand: FMN 200 uM): 16.1 nM | apparent KD of MS2 coat protein [1]: 16.4 nM | apparent KD of MS2 coat protein (input ligand: none): 23.2 nM

GCAGAACAUGAGGAUCACCCAUGUCUCAAAUAUUGAGGAUAUGGACACGGUAUAUCCGAACCAGAAGGCGAACUGC [SS1 Teenbexe 18] (puzzle: Same State 1)
apparent KD of MS2 coat protein [2]: 66.1 nM | apparent KD of MS2 coat protein [3]: 74.3 nM | apparent KD of MS2 coat protein [4]: 53.3 nM

GAGUGGCAGUUAGGAUAUAUAGUGAUAAUGACAAUAGAAGGAACAGACAUGAGGAUCACCCAUGUAGGACUAAUCCAGAGAGAG [Parity 36 - Jieux - Same State NG 1] (Eterna round: R96, puzzle: Same State NG 1)
apparent KD of MS2 coat protein (input ligand: FMN 200 uM): 32.1 nM | apparent KD of MS2 coat protein [1]: 22.5 nM | apparent KD of MS2 coat protein (input ligand: none): 30.2 nM

UAGUGCAUUAGAGGAUAUUCUUACGACACGAGUAAGACAUGAGGAUCUCCCAUGUUGUGGCAUGGGAAGAAGGCUGAUGUGCUA [Omei SS(NG)2 Bv8] (Eterna round: R96, puzzle: Same State NG 2)
apparent KD of MS2 coat protein (input ligand: FMN 200 uM): 52.5 nM | apparent KD of MS2 coat protein [1]: 6.84 nM | apparent KD of MS2 coat protein (input ligand: none): 155 nM

CGUCCGGCCUGUGCUGGCCGGUGGCUUGUACAUGAGGAUCACCCAUGUUCUUGUGCUGGCGUUUUGCUCGUCUUGUG [salish99_mir208a_r3_020] (puzzle: Sensor for hsa-mir-208a)
apparent KD of MS2 coat protein [2]: 28.2 nM | apparent KD of MS2 coat protein [3]: 20.7 nM | apparent KD of MS2 coat protein [4]: 32.5 nM

CGCUGCGUUUCAUAGGAUAUGUGGUUUUGAACAUGAGGAUCACCCAUGUAGACGUCAAUGGCUCCACAGAAGGGUGACACUAGUG [Aredis] (puzzle: Same State 2)
apparent KD of MS2 coat protein [2]: 261 nM | apparent KD of MS2 coat protein [3]: 571 nM | apparent KD of MS2 coat protein [4]: 908 nM

AUUGGGUAACGAGGAUAUCGUUUUUGUUUUCUUCGAGAAGGCGUUAUUGUUUAUUUCUAUUGUUACAUGAGGAUCACCCAUGUU [JR_SSNG1_Sub055] (Eterna round: R96, puzzle: Same State NG 1)
apparent KD of MS2 coat protein (input ligand: FMN 200 uM): 15 nM | apparent KD of MS2 coat protein [1]: 13.8 nM | apparent KD of MS2 coat protein (input ligand: none): 21.5 nM

AGCUAUCGCGUACGAUAGCUGAAGCGUGUACAUGAGGAUCACCCAUGUCAUGUACAAGCUUUUUGCUCGUCUUAUUG [JL-shm-2.28 JL mod] (puzzle: Sensor for hsa-mir-208a)
apparent KD of MS2 coat protein [2]: 249 nM | apparent KD of MS2 coat protein [3]: 18.2 nM | apparent KD of MS2 coat protein [4]: 296 nM
